In patent US6022708:

Key:
[1] = molecular target: Myelin Basic Protein (Sigma)
[2] = molecular target: transcription factor GLI, the mammalian homologue of the Drosophila cubitus interruptus (Ci)

amount of 32P incorporated into MBP, in vitro kinase assay on anti-HA immunoprecipitates (times higher compared to controls) [1]	GLI activity, luciferase reporter p9XGliLuc in C3H10T1/2 cells [2]	Substance
3		fused KD (kinase domain of human fused alone), HA epitope tagged (enzyme)
	9.5 fold	human fused (wild type, full length), HA epitope tagged
2		human fused (wild type, full length), HA epitope tagged (enzyme)
